Assay [1] has as its target Bet v 1a Y5C mutant (birch) (UniProt P15494). Put plainly: SEC; Superdex 75 size exclusion chromatography (gel filtration) separating monomeric and dimeric forms. In general terms: SEC sorts molecules by how far they enter the pores of the column.
For assay [2] the target is unchanged. As to the kind of experiment: not stated; analysis of purified Bet v 1a Y5C; method of the analysis not named; similar redox sensitivity as the dimer of the WT preparation.
For assay [3], the target named is dimeric Bet v 1a purified from the WT Bet v 1a preparation, with cysteine incorporated at position 5 instead of the encoded tyrosine (birch) (UniProt P15494). As to the kind of experiment: SEC; Superdex 75 size exclusion chromatography (gel filtration) separating monomeric and dimeric forms.

As usually defined, the stoichiometry N is a count of units in the complex or per binding partner.

“Bet v 1a Y5C mutant (from UniProt P15494 1-160) (natural protein)” came in with a stoichiometry N in assay [1] of 2. The same substance showed a percent dimerization in assay [2] of 90%.

In assay [3], “dimeric Bet v 1a purified from the WT Bet v 1a preparation, with cysteine incorporated at position 5 instead of the encoded tyrosine (from UniProt P15494 1-160) (natural protein)” registered a stoichiometry N of 2.

The values are drawn from publication PMC3879576.
